Test results from patent US20220185889.

Target: CTLA-4 Ig functionalized with GzmB substrate (UniProt P16410)
Sequence (P16410 38-161): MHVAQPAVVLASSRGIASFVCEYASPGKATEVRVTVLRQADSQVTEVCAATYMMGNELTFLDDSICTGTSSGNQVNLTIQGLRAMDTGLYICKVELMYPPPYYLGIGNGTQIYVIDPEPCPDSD

B1: complement component S1 (enzyme, UniProt P09871 16-688, looked up, species assumed)
Complement C1s subcomponent: EPTMYGEILSPNYPQAYPSEVEKSWDIEVPEGYGIHLYFTHLDIELSENCAYDSVQIISGDTEEGRLCGQRSSNNPHSPIVEEFQVPYNKLQVIFKSDFSNEERFTGFAAYYVATDINECTDFVDVPCSHFCNNFIGGYFCSCPPEYFLHDDMKNCGVNCSGDVFTALIGEIASPNYPKPYPENSRCEYQIRLEKGFQVVVTLRREDFDVEAADSAGNCLDSLVFVAGDRQFGPYCGHGFPGPLNIETKSNALDIIFQTDLTGQKKGWKLRYHGDPMPCPKEDTPNSVWEPAKAKYVFRDVVQITCLDGFEVVEGRVGATSFYSTCQSNGKWSNSKLKCQPVDCGIPESIENGKVEDPESTLFGSVIRYTCEEPYYYMENGGGGEYHCAGNGSWVNEVLGPELPKCVPVCGVPREPFEEKQRIIGGSDADIKNFPWQVFFDNPWAGGALINEYWVLTAAHVVEGNREPTMYVGSTSVQTSRLAKSKMLTPEHVFIHPGWKLLEVPEGRTNFDNDIALVRLKDPVKMGPTVSPICLPGTSSDYNLMDGDLGLISGWGRTEKRDRAVRLKAARLPVAPLRKCKEVKVEKPTADAEAYVFTPNMICAGGEKGMDSCKGDSGGAFAVQDPNDKTKFYAAGLVSWGPQCGTYGLYTRVKNYVDWIMKTMQENSTPRED
- in vitro cleavage assay: no cross-cleavage by matrix, complement, or immune proteases
